From the nanobody polyreactivity screen of Harvey et al. (2022)

Assay: yeast display, Sf9 membrane polyspecificity reagent, FACS + sequencing; frameworks hold sequencing errors
Summary of the method: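 Synthetic nanobody libraries on Saccharomyces cerevisiae BJ5465 were galactose-induced for 36–48 hours, stained 1 hour at 4 °C with 10% biotinylated, detergent-solubilized Sf9 membrane reagent and enriched on streptavidin microbeads. FACS then separated cells into low and high (top ~1%) gates by anti-HA (expression) and streptavidin (reagent binding) fluorescence. Genes were colony-PCR amplified, MiSeq 2 × 250 sequenced and CDR-length filtered. A clone's polyreactivity label is that of its gate of origin.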

| Sequence | polyreactivity (PSR sort gate) |
| --- | --- |
| QVQHVESGGGLVQAGGSLRLSCAASGRTFAHYAMGWYRQAPGKERELVAAISWGGTRTYYADSVKGRFTISRDNAKNTVYLQMNSLKPEDTAVYYCAADYGYQDDYWGQGTQVTVSS | low polyreactivity |
| QVQLVESGGGLVQAGGSLRLSCAASGRTFYSYAMGWYRPAPGKERELVAAISRRGGSTYYADSVKGRFTISRDNAKNTVYLQMNSLKPEDTAVYYCAKGGGRVGQPGYDYWGQGTQVTVSS | high polyreactivity |
| QVQLVESGGGLVQAGGSLRLSCAASGFIFRYYAMGWYRQAPGKERELVAAITRSGDNTYYADSVKGRFTISRDNAKNTVYLQMNSLKPEDTAVYYCAARDVQYQQALGGDYWGQGTQVTVSS | low polyreactivity |
| QVQLVESGGGLVQAGGSLRLSCAASGLIFWYYAMGRYRQAPGKERELVASISSGGDTTYADSVKGRFTISRDNAKNTVYLQMNSLKPEDTAVYYGAAERYVRVWVAGILHYDYWGQGTQVTVSS | low polyreactivity |
| QVQLVESGGGLVQAGGSLRLSCAASGFTFYRNAMGWYRQAPGKERELVAAISSRGGSTYYADSVKGRFTISRDNAKNTVYLQLNSMKPEDNAVYYCAAYGNYNEYDYGGQGTQVTVSS | high polyreactivity |
| QVQLVESGGGLVQAGGSLRLSCAASGNTLRPNGMGWYRQAPGKERELVAAISSGGSPYYADSVKGRFTISRDNAKNTVYLQMNSLKPEDTAVYYCAAEYWYDYWGQGTQVTVSS | low polyreactivity |
| QVQLVESGGGLVQAGGSLRLTCAASGSIFYYYAMGWYRQATGKERELVAAINSGVSTYYADSVKGRFTISRDNANNTVYLQMNSLKPDDTAVYYCAAPGHNLFGSWFSWTPDTYDYWGQGTQVTVSS | low polyreactivity |
| QVQLVESGGVVVQAGGSLRLRCAASGITIPRYPMGWYRQAPGKERELVAAISPSGGGTYYADSVKGRFTISRDNAKNTVYLQMNSLKPEDTAVYYCAARYLGYLLSGYPPYDYWVQGTQVTVSS | high polyreactivity |
| QVQLVESGGGLVQAGGSLRLSCAASGSPFYGYGMGWYRQAPVKERELVAASTRSGGSTYYADSVKGRFTRSRDNAKNTVYVQKNSLKPEDTEVYYCNKSGYKGGVGYDYWGQGTQVTVSS | high polyreactivity |
| QVQLVESGGGLVQAGGSLRLSCAASGRILYYYAMGWYRQAPGKERELVAAITWGGGSTYYADSVKGRFTISRDNAKKSVYLQMNSLTPEETAVYYCNRTFRSRLPTSRGYEYWGQGTQVTVSS | low polyreactivity |
| QVQLVESGGGLVQAGGSLRLSCAASGRIFKRNVMGWYRQAPGKERELVAAITLRGGSTYYADSVKGRFTISRDNAKNTVYLQMNSLKPEDTAVYYCAAVQGTYYWDDYWGQGTQVTVSS | low polyreactivity |
| QVQLVESGGGLVQAGGSLRLSCAASGSTFKYNTMGWYRQAPGKERELVARISWSGTRTYYADSVKGRFTISRDNAKNTVYLQMNSLKPEDTAVYYCAKVSYFWSPYGYDSWGQGTQVTVSS | high polyreactivity |
| QVQLVESGGGLVQAGGSLRLSCAASGYTFVTYAMGWYRQAPGKERELVAAISYTGGSTYYADSVKGRFTISRDNAKNTVYLQMNSLKPEDTAVYYCATLRNHYRYDYWGQGTQVTVSS | low polyreactivity |
| QVQLVESGGGLVQAGGSLRLSCAASGRTFSSYVMGWYRQAPGKERELVASISRRGGSTYYADSVKGRFTISRDNAKNTVYLQMNSLKPEDTAVYYCNADLRGFGRGTDQYIFDYWGQGTQVTVSS | high polyreactivity |
| QVQLVESGGGLVQPGGSLRLSCAAYGLTFYGYTMGWYRQAPGKERELVASITRSGGSTYADSVKGRFTISRDNAKNTVYLQMNSLKPEDTAVFYCAAVYRARGYYYWGQGTQVTVSS | high polyreactivity |
| QVQLVESGGGLVQAGGSLRLSCAASGFTFYSNAMGWYRQAPGKERELVAVINSDDDSTYYADSVKGRFTISRDNAKNTVYLQMNSLKPEDTAVYYCNKVWRVGKYPYSDRYYFGGGYWGQGTQVTVSS | high polyreactivity |
| QVQLVESGGGLVQAGGSLRLSCAASGSIFSWYAMGWYRQAPGKEREFVAAITWGTGGTYYADSVKGRFTISRDNAKNTVYLQMNSLKLEDTAVYYCAKTRSYGRSGVSRRYGFYYWGQGTQVTVSS | high polyreactivity |
| QVQLVESGGGLVQAGGSLRLSCAASGRTFRLYAMGWYRQAPGKERALVAAITGVGSTNYADSVKGRFTISRDNAKNTVYLQMNSLKPEDTAVYYCAAYYWSQVLIQGYYSWGQGTQVTVSS | high polyreactivity |
| QVQLVESGGGLVQAGGSLRLSCAASGSTFHYYAMGWYRQAPGKERELVATITRRGDSTYYADSVKGRFTISRDKAKNTVYLQMNSLKPEDTAVYYCATRYWRSGYDWPYGYWGQGTQVTVSS | high polyreactivity |
| QVQLVESGGGLVQAGGSLRLSCAASGINYSRYAMGWYRQAPGKERELVAAISSGGSTNYADSVKGRFTISRDNAKNTVYLQMNSLKPEDTAVYYCAAETRLHRQDYDYWGQGTQVTVSS | low polyreactivity |
| QVQLVESGGALVQAGGSLRLSCAASARTFIQNGMGWNRQEPGKERELVAAISYRGGTTSYADSVQGRFTISRDNAKNTVYLQMNSLKPEVTAVYYCAKRYTYYSYDYWGQGTQVTVSS | high polyreactivity |
| QVQLVESGGGLVQAGGSLRLSCAASGRIFRGYAMGWYRQAPGKERELVAAIDTDTGITYYADSVKGRFTISRDNAKNTVYLQMNSLKPEDTAVYYCAAETYYAVSTGYYFDYWGQGTQVTVSS | high polyreactivity |

| Sequence | polyreactivity (PSR sort gate) |
| --- | --- |
| QVQLVESGGGLVQAGGSLRLSCAASGSIFQVYAMGWYRQAPGKERELVATITSGGSTYYADSVKGRFTISRDNAKNTVYLQMNSLKPEDTAVYYCAAGVVYWWTGYPTISTYDYWGQGTQVTVSS | low polyreactivity |
| QVQLVETGGGLVQAGGSLRLSCAASGRTLYYYAMGWYRQAPGKERELVAAITRSGGSTYYADSVKGRFTISRDNAKNTVYLQMNSLKPEDTEVYYCNKYGYKGGVGYDYWGQGTQVTVSS | high polyreactivity |
| QVQLVESGGGLVQAGGSLRISCAASGRICIYYTMGWYRQAPGKDREFVAAITYSGGSTRYADSVKGRFTISRDNAKNTVYFQMNSLKTEVTAVYYCAAKFSVRRGFDYWGQGTQVTVSS | low polyreactivity |
| QVQLVESGGGLVQAGGSLRLSCGGSGRIFYSNAMGWYRQAPGKERELFAAIRYSGVRTYYADSLKGRFTISLDNEKNTVYLQMNSLNPEYTEVYYCNVYSRTHYQTYTDDYWGQGTQVNVSS | high polyreactivity |
| QVQLVESGGGLVQAGGSLRLSCAASGRTIGAYAMGWYRQAPGKEREFVAAITFGGGPTYYADSVKGRFTISRDNAKNTVYLQMNSLKPEDTAVYYCAKRIDLSFPYARYDYWGQGTQVTVSS | low polyreactivity |
| QVQLQESGGGLVQAGGSLRKSCAASGYIFTQYGMGWYRQGPGKERKFVATISYGGNTNYADSVKGRFTISRDNAKNTVYLQLNSLKPEDTAVYSCATKSVGYRKYWSGDIYDYWGQGTQVTVSS | low polyreactivity |
| QVQLVESGGGLVQAGGSLRLSCAASGRIFRPNAMGWYRQAPGKERELVAAMTSGGSTNYADSVKGRFTISRDNAKNTVYLQMNSLKPEDTAVYYCAKGYKYGKNIYYYWGQGTQVTVSS | high polyreactivity |
| QVQLEESGGGLVQAGGSLRLSCAASGSIFIRNAMGWYRQAPGKERELVAAISTIGGRTYYADSVKGRFTISRDNAKNTVYLQMNSQKPEDTAVYYCAAEQGTPSTNWFDYWGQGTQVTVSS | low polyreactivity |
| QVQLVESGGGIVQAGGSLRLSCAASGITFKGYTMGWYRQAPGKERELVATISRGGRTYADSVKGRFTISRDNAKNTVYLQMNSLKPEDTAVYYCAAQAERYGYEYWGQGTQVTVSS | low polyreactivity |
| QVQLVESGGGLVQAGGSLRFSCAASGSTFYSYAMGWYRQAPGKERELVAGITGNDGSTYYADSVKGRFTISRDNAKNTVYLQMNSLKPEDTAVYYCNTDASPYLFDYWGQGTQVTVSS | low polyreactivity |
| QVQLVESGGGLVQAGGSLRISCAASGGIFWTYAMGWYRQEPGKERELVAAISYSDGITYYADSVKGRFTISRDNAKNTVYFQMNSLKPEDTAVYYCAADPELAVPMYYWGQGTQVTVSS | low polyreactivity |
| QVQLVESGGGLVQAGGSLRLSCAASGRTFYWYTMGWYRQAPGKERELVAAITYRAGSTYYADSVKGRFTISRDNAKNTVYLQMNSLKPEDTAVYYCNADPPPEYYPDKDNYWGQGTQVTVSS | low polyreactivity |
| QVQLVESGGGLVQAGGSLRLSCAASGSISGYYAMGWNRQAPGKERELVASIRYTGARTYYADSVKGRFTISRDNAKNTVYLQMNSLKPEDTAVYYCAADVKRDRVWGGDYWGQGTQVTVSS | low polyreactivity |
| QVQLVESGGGLVQAGGSLRLSSAASGSTFYRYAMGWYRQAPGKERELVAAISRSGGNTFYADSVKGRFTISRDNAKNTVYLQMNSLKPEDTAVYYCAALRSWYGQTSGMDYWGQGTQVTVSS | high polyreactivity |
| QFQLVESGGGLVQAGGSLRLSCAASGSTFRGYTMGWYRQAPGKERELVAAIRSTTGRTYYADSVKGRFTISRENAKNTVYLQMNSLKPEDTAVYYCNKAYPREYYYWGQGTQVTVSS | high polyreactivity |
| QVQLVESGGGLVQAGGSLRLSCAASGRTFNRYAMGWYRQAPGKERELVAAISGGGSSTSYADSVKGRFTISRDNAKNTVYLQMNSLKPEDTAVYYCAAKYGALRYYNMYYWGQGTQVTVSS | low polyreactivity |
| QVQLVESGGGLVQAGGSLRLSCAASGRTLYFNAMGWYRQAPGKERELVADISIGGSTYYADSVKGRFTISRDNAKNTVYLQMNSLKPEDTAVYYCAANAHYYVSYAWYVDVDYWGQGTQVTVSS | high polyreactivity |
| QVQLVESGGGLVQAGGSLRLSCAASGSTFWPYAMGWYRQAPVKERELVADISRRCGSTYYADSVKGRFTISRDNAKNTVYLQMNSLKPEDTAVYYCAKYPSAYVDSDVTYDMAYWGQGTQVTVSS | low polyreactivity |
| QVQLVESGGGLVQAGGSLRLSCAASGSTFTVNDMGWYRQAPGKERELVAAITQRDGRTFYADSVKGRFTISRDNAQNTVYLLMNSLKPEDTAVYYCAADYGWYTYGDYDYWGQGTQVTVSS | low polyreactivity |
| QVQLEESGGGLVQAGGSLRVSCSASGSTYLDYHMGWYRQAPGQQRELVAAITDSGGRTYYADSVKARFTISRDNAKNTVYFQMKSLKPEDTAVYYCARDRGKITPYDYWGQGTQVTVSS | low polyreactivity |
| QVQLVESGGGLVQAGGSLRLSCAASGYTFDKYAMGWYRQAPGKERELVAAISSGGRTYYADSVKGRFTISRDNAKKTVYLQMNSLKPEDTAVYYCAKGSAGRGMDSWGQGTQVTVSS | low polyreactivity |
